# Results reported in patent publication US20210030857A1 (NGM BIOPHARMACEUTICALS, published 2021).
# “And” between values parts separate entries of the source, which are not always exact repeats. Equal values may be shown once.
# T1: mouse beta klotho expressed on cells (mouse (Mus musculus), UniProt Q99N32 1-1043)
# T1 construct: also called Mouse KLB
# T1 sequence: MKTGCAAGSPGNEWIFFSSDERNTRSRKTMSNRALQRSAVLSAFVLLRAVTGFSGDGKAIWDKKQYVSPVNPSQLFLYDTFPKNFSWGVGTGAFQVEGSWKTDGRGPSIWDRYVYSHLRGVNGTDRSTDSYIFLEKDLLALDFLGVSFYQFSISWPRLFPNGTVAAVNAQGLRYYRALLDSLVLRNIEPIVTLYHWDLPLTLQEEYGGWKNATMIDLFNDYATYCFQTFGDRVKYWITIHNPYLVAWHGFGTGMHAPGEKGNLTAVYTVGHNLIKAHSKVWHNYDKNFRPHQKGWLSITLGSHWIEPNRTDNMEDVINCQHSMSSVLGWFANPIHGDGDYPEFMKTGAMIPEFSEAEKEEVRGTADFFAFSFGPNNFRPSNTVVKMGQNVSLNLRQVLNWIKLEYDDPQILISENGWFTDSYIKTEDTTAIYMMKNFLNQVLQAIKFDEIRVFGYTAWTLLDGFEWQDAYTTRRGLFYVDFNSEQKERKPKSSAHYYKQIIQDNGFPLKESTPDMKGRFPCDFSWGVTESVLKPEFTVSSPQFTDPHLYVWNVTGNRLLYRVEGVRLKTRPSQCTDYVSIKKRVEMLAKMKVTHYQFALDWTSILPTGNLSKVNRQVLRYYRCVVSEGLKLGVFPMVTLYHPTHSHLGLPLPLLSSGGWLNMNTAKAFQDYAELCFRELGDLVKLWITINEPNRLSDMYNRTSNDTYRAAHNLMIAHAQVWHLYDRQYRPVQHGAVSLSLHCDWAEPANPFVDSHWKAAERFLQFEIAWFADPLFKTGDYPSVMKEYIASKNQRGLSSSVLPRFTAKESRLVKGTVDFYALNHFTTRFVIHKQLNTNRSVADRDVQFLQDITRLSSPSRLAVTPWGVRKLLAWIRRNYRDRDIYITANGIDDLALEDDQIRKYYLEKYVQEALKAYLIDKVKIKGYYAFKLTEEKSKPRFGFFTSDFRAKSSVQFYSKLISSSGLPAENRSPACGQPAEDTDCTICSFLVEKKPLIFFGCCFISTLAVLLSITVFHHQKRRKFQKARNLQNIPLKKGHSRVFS
# Assays:
# [1] = biological target: T2, mouse-human KLB chimeric protein (mouse KLB (M1-F506)-human KLB (S509-S1044)) on cells (mouse/human chimera, UniProt Q86Z14 1-1044 (human entry)); experiment: FACS on transfected Expi293 cells
# T2 construct: also called Mouse-Human chimeric KLB; chMoHu
# Description: (§1) Studies were performed in order to localize the binding site on human KLB of anti-beta klotho antibodies in the 5H23 epitope bin, including 5H23 as described in Example 3, with sequences shown in Tables 1-10 and FIGS. 1-3, and human anti-beta klotho antibodies in the 5H23 epitope bin, such as humanized 5H23 antibodies (e.g., VH SEQ ID NO: 271 and VL SEQ ID NO: 276). For example, FACS-based binding assays for domain mapping were performed on Expi293 cells (Life Technologies, A14635) that were transiently transfected with plasmids encoding variants of KLB: human, mouse, cynomolgus, a chimeric version in which the KL1 domain sequence of mouse KLB (M1-F506) replaces the KL1 domain of human KLB (M1-F508) to create mouse-human KLB (SEQ ID NO: 376), and a second chimera in which the human KL1 sequence (M1-F508) replaces the KL1 domain of mouse KLB (M1-F506) to create human-mouse KLB (SEQ ID NO: 374). Additionally, the expression vector pYD7 harboring no KLB sequence was transfected as a negative control.
# (§2) In some studies, binding of a purified sample of a humanized 5H23 antibody (e.g., VH SEQ ID NO: 271 and VL SEQ ID NO: 276) to KLB variants was determined by FACS analysis. […] After washing with PBS/1% BSA/0.1% azide, transfected cells were then co-incubated with labeled anti-human Fc (Jackson lmmunoresearch) for 30 minutes at 4° C. After washing with PBS/1% BSA/0.1% azide, cells were acquired on flow cytometer (FACS Calibur) and analyzed by cytometric software (FlowJo). To display the resulting data, graphs plotting the number of cells as a function of fluorescence intensity were generated, and the median fluorescence intensity (MFI) was determined for each sample as shown in Table 30.
# [2] = biological target: cynomolgus beta klotho / human FGFR1c receptor complex on cells (cynomolgus monkey (Macaca …)); experiment: cell-based or functional assay
# [3] = biological target: T3, human beta klotho / human FGFR1c receptor complex on cells (human, UniProt Q86Z14 1-1044; P11362 22-822); experiment: cell-based or functional assay
# [4] = biological target: T2, mouse-human KLB chimeric protein (mouse …); experiment: FACS on transfected Expi293 cells, antibody 1 µg/ml, labelled anti-human Fc
# Description: as §1, §2
# [5] = biological target: T1, mouse beta klotho expressed on cells; experiment: as above
# Description: as §1, §2
# [6] = biological target: T3, human beta klotho / human FGFR1c …; experiment: cell-based or functional assay; remark: listed apart in the source
# T3 sequence (Q86Z14 whole entry, chain 1 of 2): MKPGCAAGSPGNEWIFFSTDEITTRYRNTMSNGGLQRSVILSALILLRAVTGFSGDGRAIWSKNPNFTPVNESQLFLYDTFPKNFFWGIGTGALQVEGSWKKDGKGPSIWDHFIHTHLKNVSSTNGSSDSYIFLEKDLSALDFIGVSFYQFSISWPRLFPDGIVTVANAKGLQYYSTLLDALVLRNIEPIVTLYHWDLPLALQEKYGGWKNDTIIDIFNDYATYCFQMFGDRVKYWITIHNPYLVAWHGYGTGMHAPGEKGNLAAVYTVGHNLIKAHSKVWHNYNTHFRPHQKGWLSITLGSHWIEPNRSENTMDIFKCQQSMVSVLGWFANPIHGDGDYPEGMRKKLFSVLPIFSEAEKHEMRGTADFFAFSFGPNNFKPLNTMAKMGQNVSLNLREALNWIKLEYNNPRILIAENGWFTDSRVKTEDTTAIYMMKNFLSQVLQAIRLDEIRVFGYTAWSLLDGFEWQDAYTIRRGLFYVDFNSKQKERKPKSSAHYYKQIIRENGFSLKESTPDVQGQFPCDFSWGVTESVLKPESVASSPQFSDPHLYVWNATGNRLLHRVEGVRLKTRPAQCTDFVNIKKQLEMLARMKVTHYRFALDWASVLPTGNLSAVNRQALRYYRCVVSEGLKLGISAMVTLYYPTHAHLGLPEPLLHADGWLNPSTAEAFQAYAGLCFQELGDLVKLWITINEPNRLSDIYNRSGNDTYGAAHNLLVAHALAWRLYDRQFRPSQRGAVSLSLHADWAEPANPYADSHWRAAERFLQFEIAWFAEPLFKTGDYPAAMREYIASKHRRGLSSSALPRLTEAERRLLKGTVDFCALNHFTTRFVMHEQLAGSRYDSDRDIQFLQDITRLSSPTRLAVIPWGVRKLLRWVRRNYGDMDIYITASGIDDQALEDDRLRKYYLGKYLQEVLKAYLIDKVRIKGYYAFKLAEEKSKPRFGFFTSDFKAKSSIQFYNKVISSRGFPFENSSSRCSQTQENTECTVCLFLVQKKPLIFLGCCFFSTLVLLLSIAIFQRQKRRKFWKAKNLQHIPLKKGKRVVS
# T3 sequence (P11362 22-822 limits assumed, chain 2 of 2): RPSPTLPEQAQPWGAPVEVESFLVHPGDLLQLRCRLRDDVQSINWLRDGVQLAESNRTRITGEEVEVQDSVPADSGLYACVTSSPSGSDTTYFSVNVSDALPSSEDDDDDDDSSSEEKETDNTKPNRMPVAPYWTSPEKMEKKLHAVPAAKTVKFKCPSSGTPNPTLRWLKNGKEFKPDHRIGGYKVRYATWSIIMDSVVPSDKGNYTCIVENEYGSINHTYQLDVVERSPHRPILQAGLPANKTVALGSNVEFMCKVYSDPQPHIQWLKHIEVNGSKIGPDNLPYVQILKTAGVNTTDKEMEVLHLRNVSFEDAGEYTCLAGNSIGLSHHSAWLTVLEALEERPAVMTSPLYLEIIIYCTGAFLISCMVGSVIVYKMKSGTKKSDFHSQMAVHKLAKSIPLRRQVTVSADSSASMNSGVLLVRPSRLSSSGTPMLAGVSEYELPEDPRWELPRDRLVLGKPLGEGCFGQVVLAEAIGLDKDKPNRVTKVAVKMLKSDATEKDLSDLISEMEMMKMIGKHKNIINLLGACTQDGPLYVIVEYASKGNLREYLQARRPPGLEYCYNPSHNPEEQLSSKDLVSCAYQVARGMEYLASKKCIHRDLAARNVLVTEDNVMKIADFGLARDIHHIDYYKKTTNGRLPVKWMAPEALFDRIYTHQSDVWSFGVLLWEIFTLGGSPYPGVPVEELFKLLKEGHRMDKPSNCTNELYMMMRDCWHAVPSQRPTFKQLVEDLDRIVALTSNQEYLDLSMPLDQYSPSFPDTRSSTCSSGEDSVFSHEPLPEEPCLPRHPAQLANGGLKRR
# Sequence of cynomolgus beta klotho / human FGFR1c receptor complex on cells (cynomolgus monkey (Macaca …)) (chain, as listed by the source limits assumed, chain 1 of 2): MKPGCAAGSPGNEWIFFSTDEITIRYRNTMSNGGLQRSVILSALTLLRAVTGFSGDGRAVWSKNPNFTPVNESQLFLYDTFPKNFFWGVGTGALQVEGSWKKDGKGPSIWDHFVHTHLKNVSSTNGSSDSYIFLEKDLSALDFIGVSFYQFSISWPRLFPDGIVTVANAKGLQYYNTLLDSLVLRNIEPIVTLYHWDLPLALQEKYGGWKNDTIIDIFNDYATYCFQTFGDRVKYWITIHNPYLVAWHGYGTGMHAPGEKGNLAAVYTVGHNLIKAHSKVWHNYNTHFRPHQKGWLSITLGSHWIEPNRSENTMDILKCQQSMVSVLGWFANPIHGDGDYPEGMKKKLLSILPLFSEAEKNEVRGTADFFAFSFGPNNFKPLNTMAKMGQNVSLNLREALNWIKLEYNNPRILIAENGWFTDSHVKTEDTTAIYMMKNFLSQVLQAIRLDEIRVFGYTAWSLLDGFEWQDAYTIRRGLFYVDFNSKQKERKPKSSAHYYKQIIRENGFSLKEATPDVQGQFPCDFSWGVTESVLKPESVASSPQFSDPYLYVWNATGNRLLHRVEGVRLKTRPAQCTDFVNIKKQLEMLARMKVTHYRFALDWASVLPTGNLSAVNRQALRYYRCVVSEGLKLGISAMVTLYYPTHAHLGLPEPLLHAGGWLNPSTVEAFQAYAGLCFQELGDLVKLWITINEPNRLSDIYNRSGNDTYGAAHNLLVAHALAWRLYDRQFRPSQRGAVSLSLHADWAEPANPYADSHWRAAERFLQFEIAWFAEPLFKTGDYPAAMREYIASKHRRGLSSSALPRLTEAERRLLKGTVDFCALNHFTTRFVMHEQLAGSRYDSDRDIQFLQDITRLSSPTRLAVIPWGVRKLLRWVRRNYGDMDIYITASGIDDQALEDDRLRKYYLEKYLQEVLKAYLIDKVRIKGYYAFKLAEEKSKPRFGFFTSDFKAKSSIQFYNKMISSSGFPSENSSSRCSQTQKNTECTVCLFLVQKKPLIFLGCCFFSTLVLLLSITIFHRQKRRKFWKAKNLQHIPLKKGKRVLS
# Sequence of cynomolgus beta klotho / human FGFR1c receptor complex on cells (cynomolgus monkey (Macaca …)) (chain, as listed by the source limits assumed, chain 2 of 2): as the sequence (P11362 22-822 limits assumed, chain 2 of 2) above
binder,measurement,setting,value
"Control mAb comprising SEQ ID NO: 358 and SEQ ID NO: 360 (antibody, human IgG2, lambda, V domains shown, also called Control antibody) VH: not shown VL: SYVLTQPPSVSVAPGQTARITCGGNNIGSESVHWYQQKPGQAPVLVVYDDSDRPSGIPERFSGSNSGNTATLTISRVEAGDEADYYCQVWDGNSDHVVFGGGTKLTVLG",binding result,[1],no binding (tested: 1 µg/ml)
same,"HEK293 cynoKLB/R1c reporter assay EC50, Experiment - A",[2],108 pM and 178 pM
same,"HEK293 cynoKLB/R1c reporter assay EC50, Experiment - B",[2],227 pM
same,EC50-adipocyte,[3],3.4 nM
same,EC50 reporter assay,[3],0.2 nM and 0.54 nM
same,Mean Fluorescence intensity,[4],5.6 MFI
same,Mean Fluorescence intensity,[5],10.6 MFI
same,"HEK293 huKLB/R1c reporter assay EC50, Experiment - A",[6],45.3 pM
same,"HEK293 huKLB/R1c reporter assay EC50, Experiment - B",[6],27.9 pM
